Assay results reported in patent US10689452 (UNIVERSIT T STUTTGART, dated 2020).

Experiments:
[1] = target: T1, human TNFR1-Fc fusion protein (human, UniProt P19438 29-211); test: ELISA, human TNFR1-Fc
T1 construct: range 29-211; Made in stably transfected HEK293 cells; coated on ELISA plates or immobilised on QCM chips; also called huTNFR1-Fc; human TNFR-Fc; not shown: Fc part from vector pSecTagL1-Fc
T1 sequence (looked up): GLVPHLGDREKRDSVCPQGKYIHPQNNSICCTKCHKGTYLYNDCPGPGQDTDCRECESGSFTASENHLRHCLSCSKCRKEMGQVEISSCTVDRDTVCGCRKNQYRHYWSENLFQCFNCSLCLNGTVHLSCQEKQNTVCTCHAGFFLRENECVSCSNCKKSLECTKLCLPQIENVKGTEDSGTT

[2] = target: T2, human TNFR1 on cells (HT1080, HeLa, Kym-1) (human, UniProt P19438 30-455); test: cell-based or functional assay
T2 sequence (looked up): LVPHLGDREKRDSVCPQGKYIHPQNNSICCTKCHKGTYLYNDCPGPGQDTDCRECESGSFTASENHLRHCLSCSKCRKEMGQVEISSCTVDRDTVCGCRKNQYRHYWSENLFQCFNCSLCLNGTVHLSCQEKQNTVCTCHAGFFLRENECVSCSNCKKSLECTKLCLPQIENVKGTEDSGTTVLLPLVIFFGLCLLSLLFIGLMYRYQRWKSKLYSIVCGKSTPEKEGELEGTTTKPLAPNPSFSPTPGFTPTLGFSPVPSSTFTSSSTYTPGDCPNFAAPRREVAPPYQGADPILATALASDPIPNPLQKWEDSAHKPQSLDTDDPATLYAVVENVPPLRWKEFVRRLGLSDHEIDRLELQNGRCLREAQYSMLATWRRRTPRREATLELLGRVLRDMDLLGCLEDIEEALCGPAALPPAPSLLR

[3] = target: T1, human TNFR1-Fc fusion protein; test: QCM, human TNFR1-Fc, moderate receptor density (86 Hz), KD1
Experimental: (§1) Real-time binding dynamics in protein-protein interactions were determined by quartz crystal microbalance measurements (A-100 C-Fast or Cell-200 C-Fast, Attana, Stockholm, Sweden). One of the binding partners (ligand, e.g. TNFR1-Fc) was chemically immobilized on a carboxyl sensor chip according to the manufacturer's protocol at different densities (nearly 200 Hz in the case of saturating conditions to confirm previously published results and 50-100 Hz, in particular at about 50 Hz, to establish conditions of lower receptor density, better resembling the situation on the cellular surface). Binding experiments were performed with samples (analyte) diluted in PBST (PBS, 0.1% Tween 20) at pH 7.4 with a flow rate of 25 µl/min at 37° C. The chip was regenerated with 25 µl 5 mM NaOH or 20 mM glycine, pH 2.0. Every third measurement, an injection of running buffer was measured which was subtracted from the binding curve. Data were collected using the software provided by Attana for the particular device and analyzed by Attaché Office Evaluation software (Attana, Stockholm, Sweden) and TraceDrawe (ridgview instruments, Vange, Sweden).

[4] = target: T1, human TNFR1-Fc fusion protein; test: QCM, human TNFR1-Fc, moderate receptor density (86 Hz), kon1
Experimental: as §1

[5] = target: T1, human TNFR1-Fc fusion protein; test: QCM, human TNFR1-Fc, moderate receptor density (86 Hz), koff1
Experimental: as §1

[6] = target: T1, human TNFR1-Fc fusion protein; test: ELISA on coated huTNFR1-Fc, antibody titrated, signal as Binding [%]
Experimental: FIG. 13. […] Increasing concentrations were tested for their binding to huTNFR1-Fc in ELISA (n=3, mean±SD).
(§2) Microtiter plates were coated with 100 µl of the indicated protein (1 µg/ml in PBS, see Table 3.3) and incubated at 4° C. over night. The residual binding sites were blocked with 2% MPBS (skim milk in PBS, 200 µl per well) at room temperature for 2 hours and subsequently washed twice with PBS. 100 µl of the samples diluted in 2% MPBS were incubated at room temperature for 1 hour prior to the last incubation step with 100 µl of the HRP conjugated detection antibodies in 2% MPBS. In the case of competition experiments, both analyzed protein samples were prepared individually (either titrated or diluted to a single concentration) and mixed before they were applied to the plate. Bound protein was detected with 100 µl TMB substrate solution, the HRP-reaction was stopped by the addition of 50 µl 1 M H2SO4 and the absorption at the wavelength of 450 nm was measured using the Infinite microtiter plate reader (TECAN, Maennedorf, Switzerland). Between each incubation step and in advance of the detection, the plates were washed three times with PBST and twice with PBS.

[7] = target: T3, human TNFR2-Fc fusion protein (human, UniProt P20333 23-257); test: ELISA on coated receptor-Fc fusion proteins, one antibody concentration (not given on the sheet)
T3 construct: whole entry named; also called huTNFR2
T3 sequence (looked up): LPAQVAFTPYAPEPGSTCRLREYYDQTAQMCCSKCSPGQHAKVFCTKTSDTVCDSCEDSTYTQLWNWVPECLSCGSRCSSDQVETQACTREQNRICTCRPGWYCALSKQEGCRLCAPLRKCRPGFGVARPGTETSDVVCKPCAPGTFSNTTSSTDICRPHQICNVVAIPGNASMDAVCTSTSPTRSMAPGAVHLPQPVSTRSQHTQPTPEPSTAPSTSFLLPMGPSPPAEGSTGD
Experimental: (§3) FIG. 12. Species selectivity of scFv13.7 derivatives. […] Presented are mean and SD of two individual experiments.
as §2

[8] = target: T4, mouse TNFR1-Fc fusion protein (mouse, UniProt P25118 30-212); test: as above
T4 construct: range 30-212; also called moR1; not shown: Fc part from vector pSecTagL1-Fc
T4 sequence (looked up): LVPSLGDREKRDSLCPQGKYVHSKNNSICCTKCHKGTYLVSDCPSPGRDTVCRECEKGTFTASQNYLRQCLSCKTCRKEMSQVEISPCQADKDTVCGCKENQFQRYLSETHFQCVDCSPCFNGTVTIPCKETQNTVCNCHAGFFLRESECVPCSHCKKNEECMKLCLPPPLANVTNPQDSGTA
Experimental: as §3, §2

[9] = target: T5, mouse TNFR2-Fc fusion protein (mouse, UniProt P25119 23-258); test: as above
T5 construct: range 23-258; not shown: Fc part from vector pSecTagL1-Fc
T5 sequence (looked up): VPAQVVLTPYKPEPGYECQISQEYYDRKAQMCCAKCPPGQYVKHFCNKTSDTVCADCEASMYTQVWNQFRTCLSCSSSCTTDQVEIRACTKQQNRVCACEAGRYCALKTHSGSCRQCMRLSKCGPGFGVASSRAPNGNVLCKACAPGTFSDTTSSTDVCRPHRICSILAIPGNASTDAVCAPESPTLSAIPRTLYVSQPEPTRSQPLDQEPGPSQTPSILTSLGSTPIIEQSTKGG
Experimental: as §3, §2

[10] = target: T1, human TNFR1-Fc fusion protein; test: QCM
[11] = target: T1, human TNFR1-Fc fusion protein; test: QCM, human TNFR1-Fc, high receptor density (184 Hz), OneToOne analysis, KD2
Experimental: as §1, with “curve.” for “curve. Data were collected using the software provided by Attana for the particular device and analyzed by Attaché Office Evaluation software (Attana, Stockholm, Sweden) and TraceDrawe (ridgview instruments, Vange, Sweden).”

[12] = target: T1, human TNFR1-Fc fusion protein; test: QCM, human TNFR1-Fc, high receptor density (184 Hz), OneToOne analysis, kon2
Experimental: as §1, with “curve.” for “curve. Data were collected using the software provided by Attana for the particular device and analyzed by Attaché Office Evaluation software (Attana, Stockholm, Sweden) and TraceDrawe (ridgview instruments, Vange, Sweden).”

[13] = target: T1, human TNFR1-Fc fusion protein; test: QCM, human TNFR1-Fc, high receptor density (184 Hz), OneToOne analysis, koff2
Experimental: as §1, with “curve.” for “curve. Data were collected using the software provided by Attana for the particular device and analyzed by Attaché Office Evaluation software (Attana, Stockholm, Sweden) and TraceDrawe (ridgview instruments, Vange, Sweden).”

[14] = target: T2, human TNFR1 on cells (HT1080, HeLa, …); test: cell-based or functional assay; remark: listed apart in the source
[15] = target: T1, human TNFR1-Fc fusion protein; test: QCM, moderate receptor density (86 Hz)
Experimental: as §1

[16] = target: T1, human TNFR1-Fc fusion protein; test: ELISA on coated human TNFR1-Fc, reference curve next to Fab13.7PEG
Experimental: as §2

[17] = target: T1, human TNFR1-Fc fusion protein; test: ELISA on coated human TNFR1-Fc, reference curve next to Fv13.7-Fckih0DS
Experimental: as §2

Row | Binder | IC50, Cytotox (nM); inhibition of Kym-1 cell death by 0.01 nM TNF [2] | IC50, IL-6 (nM); inhibition of the response of HeLa cells to 0.1 nM TNF [2] | IC50, IL-8 (nM); inhibition of the response of HT1080 cells to 0.1 nM TNF [2] | IL-6 release (pg/ml), HeLa cells [2] | IL-8 release (pg/ml), HT1080 cells [2] | Kd [3] | kon [4] | koff [5] | EC50 [1] | other results
1 | FabATROSAB (Fab, V domains shown, Fab of ATROSAB; also called Fab fragment of ATROSAB; ATROSAB Fab) VH: QVQLVQSGAEVKKPGSSVKVSCKASGYTFTDFYINWVRQAPGQGLEWIGEIYPYSGHAYYNEKFKARVTITADKSTSTAYMELSSLRSEDTAVYYCARWDFLDYWGQGTTVTVSS VL: DIVMTQSPLSLPVTPGEPASISCRSSQSLLHSNGNTYLHWYLQKPGQSPQLLIYTVSNRFSGVPDRFSGSGSGTDFTLKISRVEAEDVGVYYCSQSTHVPYTFGGGTKVEIKR | 37 nM | 145 nM | 151 nM | 179 pg/mL | 128 pg/mL | 30 nM | 501000 M⁻¹ s⁻¹ | 0.015 s⁻¹ |  | fold weaker binding (higher EC50) compared with Fab13.7 [1]: 8.7 fold; EC50 (read off the curve) [6]: ~10 nM; binding result [7]: no binding; binding result [8]: no binding; binding result [9]: no binding
2 | IgG13.7 (antibody, V domains shown, Made transiently in HEK293T cells; also called IgG-FRK13.7) VH: HVQLVQSGAEVKKPGSSVKVSCKASGYTFTDFYINWVRQAPGQGLEWIGEIVPSQGEAKYNDKFKARVTITADKSTSTAYMELSSLRSEDTAVYYCARWDFLDYWGQGTTVTVSS VL: DVQMTQSPSSLSASVGDRVTITCRSSQSLLHSNGNTYLHWYQQKPGKAPKLLIYTVSNRFSGVPSRFSGSGSGTDFTLTISSLQPEDFATYYCSQSTHVPYTFGGGTKVEIK |  |  |  | 1450 pg/mL | 4230 pg/mL |  |  |  | 0.76 nM | fold improvement of KD compared with ATROSAB (bivalent binding) [10]: 3.5 fold; Kd [11]: 0.11 nM; kon [12]: 535000 M⁻¹ s⁻¹; koff [13]: 5.92e-05 s⁻¹
3 | Fab13.7 (Fab, V domains shown, also called Fab-FRK13.7; Fab3.7) VH: HVQLVQSGAEVKKPGSSVKVSCKASGYTFTDFYINWVRQAPGQGLEWIGEIVPSQGEAKYNDKFKARVTITADKSTSTAYMELSSLRSEDTAVYYCARWDFLDYWGQGTTVTVSS VL: DVQMTQSPSSLSASVGDRVTITCRSSQSLLHSNGNTYLHWYQQKPGKAPKLLIYTVSNRFSGVPSRFSGSGSGTDFTLTISSLQPEDFATYYCSQSTHVPYTFGGGTKVEIKR | 4.7 nM | 31 nM | 19 nM | 101 pg/mL | 138 pg/mL | 1.6 nM | 470000 M⁻¹ s⁻¹ | 0.000732 s⁻¹ | 1.4 nM | IC50 (read off the curve), inhibition of the interleukin release induced by 0.1 nM TNF (axis: IL-6 release [%]) [14]: ~20 nM; fold stronger affinity than FabATR [15]: 19 fold; EC50 (read off the curve) [16]: ~2 nM; EC50 (read off the curve) [17]: ~0.6 nM
